One block for each substance: values may come before it.
Experiments:
[1] = target: Factor D in C1q-depleted human serum (human) (UniProt P00746); assay: cell-based or functional assay
[2] = target: recombinant human Factor D (human) (UniProt P00746); assay: cell-based or functional assay

TR-FRET Activity (Thermal control) [2]: 103%
TR-FRET Activity (Unstressed control) [2]: 93%
Substance: Lampalizumab (Fab)
Hemolytic Mean (rabbit erythrocyte lysis assay; Thermal control) [1]: 96
Hemolytic Mean (rabbit erythrocyte lysis assay; Unstressed control) [1]: 81

TR-FRET Activity (Oxidized, 30 mM AAPH) [2]: 63%
Substance: Lampalizumab subjected to oxidation conditions (30 mM AAPH) (Fab)
Hemolytic Mean (rabbit erythrocyte lysis assay; Oxidized, 30 mM AAPH) [1]: 82

TR-FRET Activity (Thermal Stress) [2]: 86%
Substance: Lampalizumab subjected to thermal stress (Fab)
Hemolytic Mean (rabbit erythrocyte lysis assay; Thermal Stress) [1]: 102
